The text below walks through data of patent publication US20180044374A1.

Assay [1] concerns the target human polyclonal IgG (Gammanorm) (human). The experiment in a line: pH 6-3 citrate gradient elution from column, peak 1.
The target is the same in assay [2]. The experiment in a line: pH 6-3 citrate gradient elution from column, peak 2.
Assay [3] has the same target. Description: dynamic binding capacity, 6 min residence; ligand 9.7 mg/ml on agarose beads.
Assay [4] has the same target. Description: dynamic binding capacity, measured after six 4 h cycles in 1.0 M NaOH; ligand 9.7 mg/ml on agarose beads.
Assay [5] has the same target. The experiment in a line: dynamic binding capacity, measured after 24 h cumulative exposure to 0.5 M NaOH; ligand 9.7 mg/ml on agarose beads.
For assay [6] the target is unchanged. Description: dynamic binding capacity, 6 min residence; ligand 9.7 mg/ml on agarose beads. This is another data set of the same source.
For assay [7] the target is unchanged. The experiment in a line: dynamic binding capacity, measured after 24 h cumulative exposure to 0.5 M NaOH; ligand […] on agarose beads.
Assay [8] shares this target. Description: dynamic binding capacity, measured after 24 h cumulative exposure to 0.5 M NaOH; ligand 7.0 mg/ml on agarose beads.
Assay [9] shares this target. Description: dynamic binding capacity, 6 min residence; ligand […] on agarose beads.
For assay [10] the target is unchanged. Description: dynamic binding capacity, 6 min residence; ligand 7.0 mg/ml on agarose beads.
The target in assay [11] is IgG1 monoclonal antibody (probe molecule, Example 1). Description: SPR (Biacore), ligand on CM5 chip, IgG1 mAb as probe. (In general: Surface plasmon resonance follows binding to a sensor surface in real time, without labels.)
Assay [12] has as its target human polyclonal IgG (Gammanorm) (human). Description: dynamic binding capacity, measured after 24 h cumulative exposure to 0.5 M NaOH; ligand 7.2 mg/ml on agarose beads.
Assay [13] shares this target. The experiment in a line: dynamic binding capacity, measured after six 4 h cycles in 1.0 M NaOH; ligand […] on agarose beads.
Assay [14] shares this target. Description: dynamic binding capacity, 6 min residence; ligand […] on agarose beads. The source holds these as a separate data set.
Assay [15] shares this target. Description: dynamic binding capacity, 6 min residence; ligand 7.2 mg/ml on agarose beads.
For assay [16] the target is unchanged. The experiment in a line: dynamic binding capacity; matrix A56-2, ligand […].
For assay [17] the target is unchanged. Description: dynamic binding capacity; matrix H35, ligand […].
Assay [18] has the same target. The experiment in a line: dynamic binding capacity; matrix S9, ligand 18.4 mg/ml.
For assay [19] the target is unchanged. The experiment in a line: dynamic binding capacity; matrix A38, ligand […].
Assay [20] shares this target. Description: dynamic binding capacity; matrix A56, ligand 15.2 mg/ml.
For assay [21] the target is unchanged. The experiment in a line: dynamic binding capacity; matrix A56, ligand […]. The conditions noted are these: ligand content 7.1 mg/ml.
For assay [22] the target is unchanged. The experiment in a line: dynamic binding capacity; matrix C3, ligand 15.1 mg/ml.
Assay [23] has the same target. Description: pH 6-3 citrate gradient elution from column, peak 1; ligand […].
The target is the same in assay [24]. Description: dynamic binding capacity; matrix A20, ligand 6.4 mg/ml.
Assay [25] shares this target. The experiment in a line: dynamic binding capacity; matrix C3, ligand 11.9 mg/ml.
Assay [26] has the same target. The experiment in a line: dynamic binding capacity; matrix A56, ligand 19.2 mg/ml.
For assay [27] the target is unchanged. Description: dynamic binding capacity; matrix A56, ligand 7.9 mg/ml.
Assay [28] shares this target. The experiment in a line: dynamic binding capacity; matrix H40, ligand 23.0 mg/ml.
The target is the same in assay [29]. Description: dynamic binding capacity; matrix A38, ligand 11.6 mg/ml.
Assay [30] shares this target. Description: dynamic binding capacity; matrix A20, ligand […].
Assay [31] shares this target. The experiment in a line: dynamic binding capacity; matrix A33, ligand […]. The conditions noted are these: ligand content 6.5 mg/ml.
Assay [32] has the same target. Description: dynamic binding capacity; matrix H40, ligand […]. The settings on record: ligand content 6.9 mg/ml.
Assay [33] shares this target. The experiment in a line: dynamic binding capacity; matrix P10, ligand 19.0 mg/ml.
Assay [34] has the same target. Description: dynamic binding capacity; matrix A38, ligand 15.8 mg/ml.
Assay [35] has the same target. Description: dynamic binding capacity; matrix A63b, ligand 6.4 mg/ml.
The target is the same in assay [36]. The experiment in a line: dynamic binding capacity; matrix C4, ligand 11.2 mg/ml.
Assay [37] shares this target. The experiment in a line: dynamic binding capacity; matrix A56-2, ligand 12.5 mg/ml.
The target is the same in assay [38]. Description: dynamic binding capacity; matrix H35, ligand 12.3 mg/ml.
The target is the same in assay [39]. The experiment in a line: dynamic binding capacity; matrix H31, ligand 20.0 mg/ml.
Assay [40] has the same target. Description: dynamic binding capacity; matrix C3, ligand […].
Assay [41] shares this target. Description: dynamic binding capacity; matrix A20, ligand 21.1 mg/ml.
For assay [42] the target is unchanged. The experiment in a line: dynamic binding capacity; matrix A63b, ligand 10.6 mg/ml.
The target is the same in assay [43]. The experiment in a line: dynamic binding capacity; matrix A62a, ligand 9.6 mg/ml.
Assay [44] shares this target. Description: dynamic binding capacity; matrix H31, ligand […].
For assay [45] the target is unchanged. Description: dynamic binding capacity; matrix C4, ligand 15.2 mg/ml.
The target is the same in assay [46]. Description: dynamic binding capacity; matrix A56-2, ligand 19.2 mg/ml.
Assay [47] has the same target. The experiment in a line: dynamic binding capacity; matrix A62a, ligand […].
The target is the same in assay [48]. The experiment in a line: dynamic binding capacity; matrix H35, ligand 20.3 mg/ml.
The target is the same in assay [49]. The experiment in a line: dynamic binding capacity; matrix A54, ligand 21.1 mg/ml.
For assay [50] the target is unchanged. Description: dynamic binding capacity; matrix A54, ligand […]. The settings on record: ligand content 6.7 mg/ml.
Assay [51] shares this target. Description: pH 6-3 citrate gradient elution from column, peak 2; ligand […].
For assay [52] the target is unchanged. Description: dynamic binding capacity; matrix A63b, ligand 16.7 mg/ml.
For assay [53] the target is unchanged. Description: dynamic binding capacity, 6 min residence; ligand 10.8 mg/ml on agarose beads.
Assay [54] shares this target. Description: dynamic binding capacity, measured after 24 h cumulative exposure to 0.5 M NaOH; ligand 10.8 mg/ml on agarose beads.

As to “MabSelect SuRe LX (GE Healthcare Life Sciences)”, the Elution pH in [1] was 4.01 pH; in [2] it was 3.7 pH.
For “Zvar(N11K, H18K, S33K, D37E, A42R, N43A, L44I, K50R, L51Y)4 with an additional N-terminal cysteine (Examples 4 and 5) (designed binder)”, the figures for the Initial IgG capacity Qb10 in assay [3] and in assay [6] were 62.1 mg/mL and 56.3 mg/mL, respectively. In addition, the Remaining IgG capacity Qb10 after six 4 h cycles was 48.1 mg/mL in [4] and 52 mg/mL in assay [5].
With “Zvar(Q9A, N11E, N28A, N43A)4 with an additional N-terminal cysteine (Example 4) (designed binder)”, the Remaining IgG capacity Qb10 after six 4 h cycles in assay [7] amounted to 46.2 mg/mL; in [8] it was 44.1 mg/mL. Also, the Initial IgG capacity Qb10 in assay [9] amounted to 50 mg/mL; in assay [10], 49.1 mg/mL.
As for “Zvar(Q9A, N11E, Q40V, A42K, N43A, L44I)1 (designed binder)”, in [11], the Kd turned out to be 1.07 nM, the koff was 0.000437 s⁻¹ and the kon stood at 410000 M⁻¹ s⁻¹.
As for “Zvar(Q9A, N11E, Q40V, A42K, N43A, L44I)4 with an additional N-terminal cysteine (Examples 4 and 5) (designed binder)”, the results for the Remaining IgG capacity Qb10 after six 4 h cycles in assay [7], in assay [12] and in assay [13] were 53.6 mg/mL, 44.2 mg/mL and 56 mg/mL, respectively. Further, the Initial IgG capacity Qb10 came out at 60.3 mg/mL in [14], 56.3 mg/mL in [9] and 49 mg/mL in [15].
With “Zvar(Q9A, N11E, Q40V, A42K, N43A, L44I)6 (designed binder)”, the Qb10% 2.4 min in assay [16] was found to be 50 mg/mL; in assay [17], 36 mg/mL; in [18], 56 mg/mL; in assay [19], 47 mg/mL; in assay [20] it was 48 mg/mL; in [21], 48 mg/mL. Moreover, the Qb10% 2.4 min in assay [22] turned out to be 43 mg/mL; in assay [24], 41 mg/mL; in assay [25] it was 51 mg/mL; in [26], 55 mg/mL; in assay [27] it was 47 mg/mL; in assay [28] it was 41 mg/mL. In addition, the Qb10% 2.4 min in assay [29] came out at 48 mg/mL; in [30], 38 mg/mL; in [31], 44 mg/mL; in assay [32] it was 50 mg/mL; in assay [34] it was 36 mg/mL; in [35] it was 42 mg/mL. Also, the Qb10% 2.4 min is 62 mg/mL in assay [36]; 59 mg/mL in assay [37]; 31 mg/mL in assay [38]; 31 mg/mL in [39]; 48 mg/mL in [40]; 44 mg/mL in assay [41]. Moreover, the Qb10% 2.4 min was 49 mg/mL in assay [42]; 56 mg/mL in assay [43]; 37 mg/mL in [44] (ligand content 6.5 mg/ml); 50 mg/mL in [44] (ligand content 10.4 mg/ml); 57 mg/mL in assay [45]; 61 mg/mL in assay [46]. Also, the Qb10% 2.4 min in [47] came out at 62 mg/mL; in assay [48], 20 mg/mL; in assay [49] it was 38 mg/mL; in [50], 38 mg/mL; in [52], 53 mg/mL. Also, the Qb10% 6 min was found to be 58 mg/mL in assay [16]; 49 mg/mL in assay [17]; 75 mg/mL in assay [18]; 57 mg/mL in assay [19]; 76 mg/mL in assay [20]; 57 mg/mL in [21]. For the same substance, the Qb10% 6 min in [22] was 61 mg/mL; in assay [24], 56 mg/mL; in assay [25] it was 73 mg/mL; in assay [26], 80 mg/mL; in assay [27], 55 mg/mL; in assay [28], 65 mg/mL. Further, the Qb10% 6 min is 72 mg/mL in [29]; 64 mg/mL in [30]; 53 mg/mL in [31]; 56 mg/mL in [32]; 76 mg/mL in assay [33]; 62 mg/mL in assay [34]. In addition, the Qb10% 6 min in [35] is 46 mg/mL; in [36] it was 74 mg/mL; in [37], 72 mg/mL; in [38], 54 mg/mL; in [39], 52 mg/mL; in assay [40], 59 mg/mL. Also, the Qb10% 6 min worked out at 43 mg/mL in [41]; 60 mg/mL in assay [42]; 72 mg/mL in [43]; 38 mg/mL in assay [44] (ligand content 6.5 mg/ml); 61 mg/mL in assay [44] (ligand content 10.4 mg/ml); 82 mg/mL in assay [45]. Further, the Qb10% 6 min in assay [46] was found to be 82 mg/mL; in [47], 84 mg/mL; in assay [48] it was 43 mg/mL; in assay [49], 65 mg/mL; in assay [50], 46 mg/mL; in assay [52] it was 69 mg/mL. For the same substance, the Elution pH turned out to be 4.24 pH in assay [23] and 3.81 pH in assay [51].
For the substance “Zvar(Q9A, N11K, H18K, D37E, A42R)4 with an additional N-terminal cysteine (Example 4) (designed binder)”, the Initial IgG capacity Qb10 in [53] amounted to 56.9 mg/mL. Also, the Remaining IgG capacity Qb10 after six 4 h cycles in assay [54] came to 52.5 mg/mL.

As a reminder, the Kd is the constant that tells how readily two partners part at equilibrium. The low end stands for tighter binding, the high end for weaker binding. The term koff denotes the rate constant with which the complex falls apart. A higher koff goes with fast dissociation. One may read the kon as the rate constant with which the complex forms. Higher therefore signals faster complex formation.
